From patent publication US20240026037A1 (Memorial Sloan Kettering, published 2024)

T1: Human GPA33 (recombinant protein, Novoprotein) (human, UniProt Q99795 22-235)
T1 construct: Bought recombinant protein immobilized on a CM5 chip; also called GPA33 antigen; tumor antigen GPA33
T1 sequence: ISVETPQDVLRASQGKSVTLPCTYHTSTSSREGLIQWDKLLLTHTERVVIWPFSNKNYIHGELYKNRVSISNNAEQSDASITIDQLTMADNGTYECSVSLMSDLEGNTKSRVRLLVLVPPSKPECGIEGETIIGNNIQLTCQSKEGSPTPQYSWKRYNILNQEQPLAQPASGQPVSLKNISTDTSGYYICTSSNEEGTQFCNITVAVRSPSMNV

T2: Human GPA33 on GPA33+ colorectal cancer cell lines (Colo 205, LS 174T, SW 1222) (human, UniProt Q99795 22-319)
T2 construct: Endogenous GPA33 on human colorectal cancer cell lines; also called surface human GPA33; GPA33+ tumor cell lines
T2 sequence: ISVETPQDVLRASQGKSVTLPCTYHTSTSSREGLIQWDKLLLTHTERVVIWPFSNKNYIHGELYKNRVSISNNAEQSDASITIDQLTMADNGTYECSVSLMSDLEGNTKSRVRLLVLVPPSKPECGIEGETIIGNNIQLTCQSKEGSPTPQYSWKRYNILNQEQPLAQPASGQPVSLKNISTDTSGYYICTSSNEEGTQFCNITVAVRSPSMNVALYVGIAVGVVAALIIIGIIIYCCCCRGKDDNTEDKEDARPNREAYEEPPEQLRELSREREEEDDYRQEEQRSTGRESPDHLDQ


How the values were obtained:
[1] = molecular target: T1, Human GPA33 (recombinant protein, …); assay: SPR (Biacore), human GPA33 immobilized on CM5 chip, two-state fit
Procedure: (§1) SPR analysis. Human GPA33 (Novoprotein, Summit, NJ) was immobilized on CM5 chips. Five concentrations of 2-fold serially diluted huA33 IgG1 or huA33-BsAbs (starting at 20 nM) were flowed over the chip using a Biacore™ T100 system (GE Healthcare, Chicago, IL). Binding kinetics of huA33 were measured at 25° C. and binding kinetics of huA33-BsAbs were measured at both 25° C. and 37° C. The sensorgrams were fitted with two state binding model for both to derive kinetic parameters.

[2] = molecular target: T1, Human GPA33 (recombinant protein, …); assay: SPR (Biacore), human GPA33 immobilized on CM5 chip, two-state fit, ka1
Procedure: as §1

[3] = molecular target: T1, Human GPA33 (recombinant protein, …); assay: SPR (Biacore), human GPA33 immobilized on CM5 chip, two-state fit, kd1
Summary of the method: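 The off-rate (kd1) was measured by surface plasmon resonance on a Biacore T100, with recombinant human GPA33 (Novoprotein) immobilised on a CM5 chip. Antibodies were flowed over at five concentrations, 2-fold serial dilutions starting at 20 nM. The parent IgG1 was run at 25° C and bispecific formats at 25° C and 37° C. Sensorgrams were fitted with a two-state binding model to derive the kinetic parameters.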

[4] = molecular target: T1, Human GPA33 (recombinant protein, …); assay: SPR (Biacore), human GPA33 immobilised on the chip; KD relative to that of BC015
Summary of the method: (§2)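 Surface plasmon resonance on a Biacore system with immobilised recombinant human GPA33 (Novoprotein) was used to determine KD by kinetic fitting. The values given are each KD divided by the KD of a reference molecule.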

[5] = molecular target: T2, Human GPA33 on GPA33+ colorectal cancer …; assay: flow cytometry, LS 174T cells
[6] = molecular target: T2, Human GPA33 on GPA33+ colorectal cancer …; assay: flow cytometry, SW 1222 cells
[7] = molecular target: T2, Human GPA33 on GPA33+ colorectal cancer …; assay: flow cytometry, Colo 205 cells; Colo 205 cells
[8] = molecular target: T2, Human GPA33 on GPA33+ colorectal cancer …; assay: FACS binding to LS174T cells (GPA33+)
[9] = molecular target: T2, Human GPA33 on GPA33+ colorectal cancer …; assay: FACS binding to SW1222 cells (GPA33+)
[10] = molecular target: T2, Human GPA33 on GPA33+ colorectal cancer …; assay: FACS binding to Colo205 cells (GPA33+)
[11] = molecular target: T1, Human GPA33 (recombinant protein, …); assay: SPR (Biacore), human GPA33 immobilised on the chip; KD relative to that of TC170
Summary of the method: as §2

[12] = molecular target: T2, Human GPA33 on GPA33+ colorectal cancer …; assay: cell binding to LS174T Luc cells; IgG format
[13] = molecular target: T2, Human GPA33 on GPA33+ colorectal cancer …; assay: cell binding to SW1222 Luc cells; IgG format
[14] = molecular target: T1, Human GPA33 (recombinant protein, …); assay: SPR (Biacore), binding to GPA33 protein; IgG format
Procedure: as §1

Binder	Kd [1] [nM]	ka2 [1] [s⁻¹]	kd2 [1] [s⁻¹]	kon [2] [M⁻¹ s⁻¹]	koff [3] [s⁻¹]	Fold change of KD (relative to BC015, lower is better) [4]	IC50 [5] [nM]	IC50 [6] [nM]	EC50 [7] [nM]	fold change of binding EC50 (relative to TC170, lower is better) [8]	fold change of binding EC50 (relative to TC170, lower is better) [9]	fold change of binding EC50 (relative to TC170, lower is better) [10]	Fold change of KD (relative to TC170, lower is better) [11]	EC50 [12] [µg/mL]	EC50 [13] [µg/mL]	Kd [14] [nM]
BC155 (bispecific antibody, human IgG1, kappa, N297A, Previously described GPA33xDOTA IgG-[L]-scFv clone; The light chain entry carries the anti-DOTA scFv at its C-terminus) heavy: not shown light: DIQMTQSQSSLSTSVGDRVTITCKASQNVRTVVAWYQQKPGKSPKTLIYLASNRHTGVPSRFSGSGSGTEFTLTISNVQPEDFADYFCLQHWSYPLTFGSGTKLEIKRTVAAPSVFIFPPSDEQLKSGTASVVCLLNNFYPREAKVQWKVDNALQSGNSQESVTEQDSKDSTYSLSSTLTLSKADYEKHKVYACEVTHQGLSSPVTKSFNRGECTSGGGGSGGGGSGGGGSHVQLVESGGGLVQPGGSLRLSCAASGFSLTDYGVHWVRQAPGKGLEWLGVIWSGGGTAYNTALISRFTISRDNSKNTLYLQMNSLRAEDTAVYYCARRGSYPYNYFDAWGCGTLVTVSSGGGGSGGGGSGGGGSGGGGSGGGGSGGGGSQAVVTQEPSLTVSPGGTVTLTCGSSTGAVTASNYANWVQQKPGQCPRGLIGGHNNRPPGVPARFSGSLLGGKAALTLLGAQPEDEAEYYCALWYSDHWVIGGGTKLTVLG	0.171	0.00328	0.00164	4.13e+06	0.00212	1.45										
BC178 (bispecific antibody) heavy: not shown light: DIQMTQSPSSLSTSVGDRVTITCKASQNVRTVVAWYQQKPGKAPKTLIYLASNRHSGVPSRFSGSGSGTEFTLTISNLQPEDFATYYCLQHWSYPLTFGSGTKLEVKRTVAAPSVFIFPPSDEQLKSGTASVVCLLNNFYPREAKVQWKVDNALQSGNSQESVTEQDSKDSTYSLSSTLTLSKADYEKHKVYACEVTHQGLSSPVTKSFNRGECTSGGGGSGGGGSGGGGSHVQLVESGGGLVQPGGSLRLSCAASGFSLTDYGVHWVRQAPGKGLEWLGVIWSGGGTAYNTALISRFTISRDNSKNTLYLQMNSLRAEDTAVYYCARRGSYPYNYFDAWGCGTLVTVSSGGGGSGGGGSGGGGSGGGGSGGGGSGGGGSQAVVTQEPSLTVSPGGTVTLTCGSSTGAVTASNYANWVQQKPGQCPRGLIGGHNNRPPGVPARFSGSLLGGKAALTLLGAQPEDEAEYYCALWYSDHWVIGGGTKLTVLG	0.00792	0.0541	0.00504	5.5e+06	0.000511											
TC160 (bispecific antibody, Previously described GPA33xDOTA SADA clone, with the other VH/VL orientation than TC159; Carries the p53 SADA (tetramerization) domain) DIQMTQSQSSLSTSVGDRVTITCKASQNVRTVVAWYQQKPGKSPKTLIYLASNRHTGVPSRFSGSGSGTEFTLTISNVQPEDFADYFCLQHWSYPLTFGSGTKLEIKRGGGGSGGGGSGGGGSGGGGSGGGGSGGGGSEVQLVESGGGLVKPGGSLRLSCAASGFAFSTYDMSWVRQAPGKRLEWVATISSGGSYTYYLDSVKGRFTISRDNAKNSLYLQMNSLRAEDTAVYYCAPTTVVPFAYWGQGTLVTVSSGGGGSGGGGSGGGGSGGGGSHVQLVESGGGLVQPGGSLRLSCAASGFSLTDYGVHWVRQAPGKGLEWLGVIWSGGGTAYNTALISRFTISRDNSKNTLYLQMNSLRAEDTAVYYCARRGSYPYNYFDAWGCGTLVTVSSGGGGSGGGGSGGGGSGGGGSGGGGSGGGGSQAVVTQEPSLTVSPGGTVTLTCGSSTGAVTASNYANWVQQKPGQCPRGLIGGHNNRPPGVPARFSGSLLGGKAALTLLGAQPEDEAEYYCALWYSDHWVIGGGTKLTVLGTPLGDTTHTSGKPLDGEYFTLQIRGRERFEMFRELNEALELKDAQAGKEPGGSGGAPHHHHHH	0.0518	0.00678	0.000654	3.43e+06	0.00202		0.56	0.36	1.2	1.81	0.22	1.62	3.4			
G3A_VK8+VH3 (antibody, V domains shown) VH: EVQLVESGGGLVKPGGSLRLSCAASGFAFSTYDMSWVRQAPGKGLEWVATISSGGSYTYYADSVKGRFTISRDSAKNSLYLQMNSLRAEDTAVYYCAPTTVVPFAYWGQGTLVTVSA VL: DIQMTQSPSSLSASVGDRVTITCKASQNVRTVVAWYQQKPGKAPKRLIYLASNRHTGVPSRFSGSGSGTEFTLTISNLQPEDFADYYCLQHWSYPLTFGSGTKLEVK														0.433	0.792	1.89
BC105 (bispecific antibody, human IgG1, kappa, N297A, Previously described GPA33xDOTA IgG-[L]-scFv clone; The light chain entry carries the anti-DOTA scFv at its C-terminus; also called GPA33 BsAb-IgG (BC105); GPA33 clone BC105 BsAb) heavy: not shown light: DIQMTQSPSSLSVSVGDRVTITCKASQNVRTVVAWYQQKPGLAPKTLIYLASNRHTGVPSRFSGSGSGTDFTFTISSLQPEDIATYFCQQHWSYPLTFGQGTKVEVKRTVAAPSVFIFPPSDEQLKSGTASVVCLLNNFYPREAKVQWKVDNALQSGNSQESVTEQDSKDSTYSLSSTLTLSKADYEKHKVYACEVTHQGLSSPVTKSFNRGECGGGGSGGGGSASHVKLQESGPGLVQPSQSLSLTCTVSGFSLTDYGVHWVRQSPGKGLEWLGVIWSGGGTAYNTALISRLNIYRDNSKNQVFLEMNSLQAEDTAMYYCARRGSYPYNYFDAWGCGTTVTVSSGGGGSGGGGSGGGGSQAVVIQESALTTPPGETVTLTCGSSTGAVTASNYANWVQEKPDHCFTGLIGGHNNRPPGVPARFSGSLIGDKAALTIAGTQTEDEAIYFCALWYSDHWVIGGGTRLTVLG	1.21	0.00238	0.000697	4.43e+06	0.0236	10.2										
